Results taken from patent US6875594B2, “Methods of ligating expressed proteins” (The Rockefeller University, priority 1997, dated 2005).
One block for each molecule: values may come before it.

What was measured:
poly(glu,tyr) [1] = test: Csk kinase assay, transfer of 32P from γ-32P-ATP to poly(glu,tyr); format: biochemical
Description: In each of the two ligation reactions, the crude product mixture was nearly free of unligated material, although both preparations were contaminated with GroEL and DnaK. Although yields were not optimized, an estimated 0.5 mg of ligation product per 2.5 L bacterial cell culture was produced. […] Kinase assays were performed as described by Cole et al., J. Biol. Chem. 269, 30880 (1994) where transfer of ^32P from γ-^32P-ATP to poly(glu,tyr) was monitored. Briefly, poly(glu,tyr) reactions were carried out in 60 mM Tris-HCl, pH 7.4, 2 mM MnCl2, 10 mM dithiothreitol, 200 μg/mL BSA for 2 minutes at 30° C., quenched with EDTA, run out on 10% SDSPAGE and phosphopoly(glu,tyr) analyzed by scintillation counting. […] Further characterization of (Csk^PEP) and (Csk^pPEP) by electrospray mass spectrometry gave molecular masses in good agreement with the predicted values (FIG. 2C).

poly(glu,tyr) [2] = target: T1, poly(glu,tyr) (Homo sapiens, UniProt P41240); settings: wild type Csk, reference (32), cited from earlier work
T1 construct: N-terminal methionine residue in the protein produced as an intein-CBD fusion was completely removed (no such cleavage is observed); Tyr unphosphorylated in Csk^PEP, phosphorylated in Csk^pPEP; made in house; host or cells: E. coli DH5α, co-expressed with GroES/GroEL

[3] = target: T2, consolidated ligand NH2-PVpYENVG6>(PPAYPPPPVPKCONH2) (Homo sapiens, UniProt P00519, C100A/N120G/S121C); test: Fluorescence-based titration binding assay; settings: consolidated ligand binding both SH3 and SH2 domains; read-out: equilibration dissociation constant (Kd) for binding to the ligand
T2 construct: intein-CBD (on the SH3 segment, removed on thioester formation) (C, cleaved yes); GST-SH3-IEGR (upstream of the SH2 segment, removed by thrombin and Factor Xa) (N, cleaved yes); made in house; host or cells: E. coli (BL21 for SH3-intein-CBD, DH5-α for the GST fusion that gives SH2)
Text: Under these conditions, no protein precipitation was observed and NMR analysis indicated the sample had adopted a native fold. A similar strategy was therefore used to prepare the complete [SH2-^15N]SH(32) construct for functional and structural analysis. The binding affinity of Abl-[SH2^15N]SH(32) for the consolidated ligand, NH2-PVpYENVG6>(PPAYPPPPVPKCONH2) (SEQ ID NOs: 5 and 6, respectively), which binds both the SH3 and the SH2 domains simultaneously (78) was studied using a fluorescence-based titration assay. (The C-terminal glycyl residue is linked to the N ε of lysyl in the second peptide segment). […] This affinity is characteristic of the dual domain construct.
Fluorescence Binding Assay: The equilibrium dissociation constants of the protein constructs for the consolidated ligand were determined using the previously describedfluorescence-based titration assay (78). The binding constant for the segment labeled construct was 300 (±100) nM. Experiments were performed on a Spex Fluorolog-3 spectrophotometer fitted with a Neslab temperature control unit.

B1: wild type Csk: Full-length wild-type human C-terminal Src kinase, 50 kDa protein (protein, UniProt P41240 1-450, looked up)
chain: MSAIQAAWPSGTECIAKYNFHGTAEQDLPFCKGDVLTIVAVTKDPNWYKAKNKVGREGIIPANYVQKREGVKAGTKLSLMPWFHGKITREQAERLLYPPETGLFLVRESTNYPGDYTLCVSCDGKVEHYRIMYHASKLSIDEEVYFENLMQLVEHYTSDADGLCTRLIKPKVMEGTVAAQDEFYRSGWALNMKELKLLQTIGKGEFGDVMLGDYRGNKVAVKCIKNDATAQAFLAEASVMTQLRHSNLVQLLGVIVEEKGGLYIVTEYMAKGSLVDYLRSRGRSVLGGDCLLKFSLDVCEAMEYLEGNNFVHRDLAARNVLVSEDNVAKVSDFGLTKEASSTQDTGKLPVKWTAPEALREKKFSTKSDVWSFGILLWEIYSFGRVPYPRIPLKDVVPRVEKGYKMDAPDGCPPAVYEVMKNCWHLDAAMRPSFLQLREQLEHIKTHELHL
modifications: full-length
notes: Full-length wild-type human C-terminal Src kinase, 50 kDa protein
catalytic activity (kinase assay) (poly(glu,tyr) [1]): fully active | Km of poly(glu,tyr) (poly(glu,tyr) [2]): 48 ± 2 µg/mL | kcat (poly(glu,tyr) [2]): 0.667 ± 0.083 s⁻¹ | Km (poly(glu,tyr) [2]; read-out: Km of ATP): 12 ± 1 µM

Kd [3]: 300 nM
B2: Abl-[SH2^15N]SH(32): Ligated human Abl SH3-SH2 domain pair with G120 C121 mutations, only the SH2 domain 15N labeled (SEQ ID NO: 1) (protein)
chain: MLFVALYDFVASGDNTLSITKGEKLRVLGYNHNGEWAEAQTKNGQGWVPSNYITPVGCLEKHSWYHGPVSRNAAEYLLSSGINGSFLVRESESSPGQRSISLRYEGRVYHYRINTASDGKLYVSSESRFNTLAELVHHHSTVADGLITTLHYPAPKRGIHRD
modifications: 15N label on SH2 domain
